Series [1] concerns T1, MBP-ZC3H14 full-length wildtype (residues 1-736).
T1 sequence: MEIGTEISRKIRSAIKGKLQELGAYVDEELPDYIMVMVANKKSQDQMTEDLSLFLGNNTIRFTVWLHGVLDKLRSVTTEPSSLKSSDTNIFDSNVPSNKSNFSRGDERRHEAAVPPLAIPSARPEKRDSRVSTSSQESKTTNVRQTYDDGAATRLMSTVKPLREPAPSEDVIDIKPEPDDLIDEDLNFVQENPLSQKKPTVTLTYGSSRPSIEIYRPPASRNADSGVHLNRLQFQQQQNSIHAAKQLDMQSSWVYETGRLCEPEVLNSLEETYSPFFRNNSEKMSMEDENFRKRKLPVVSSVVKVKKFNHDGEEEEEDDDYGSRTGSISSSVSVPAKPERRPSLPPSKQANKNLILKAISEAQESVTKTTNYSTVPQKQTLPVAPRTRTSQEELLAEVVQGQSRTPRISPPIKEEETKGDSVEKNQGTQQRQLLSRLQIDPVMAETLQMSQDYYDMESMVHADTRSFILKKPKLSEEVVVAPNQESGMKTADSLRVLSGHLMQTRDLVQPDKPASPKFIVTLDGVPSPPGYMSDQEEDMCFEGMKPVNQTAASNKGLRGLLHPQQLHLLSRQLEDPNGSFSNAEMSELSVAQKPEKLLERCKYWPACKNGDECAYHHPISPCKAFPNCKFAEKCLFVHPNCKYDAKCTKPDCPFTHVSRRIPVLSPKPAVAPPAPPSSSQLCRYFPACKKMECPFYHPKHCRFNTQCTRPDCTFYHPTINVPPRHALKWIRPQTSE

For series [2], the system named is T2, MBP-ZC3H14 full-length S475A mutant.
T2 sequence: T1 sequence with S475A

Substitutions are numbered along the chain they refer to.

“Cdk13 (694-1039) / Cyclin T1 (1-272, T149E) kinase complex”: in series [1], the anti-thiophosphorylation immunoblot entry is on record as “CDK13 directly phosphorylates ZC3H14 WT but not ZC3H14 S475A” and the “in vitro kinase assay P32 counts per minute minus time zero” value is “CDK13 directly phosphorylates ZC3H14 WT but not ZC3H14 S475A”. For the same substance, in series [2], the anti-thiophosphorylation immunoblot entry is listed as “CDK13 directly phosphorylates ZC3H14 WT but not ZC3H14 S475A” and the “in vitro kinase assay P32 counts per minute minus time zero” value is given as “CDK13 directly phosphorylates ZC3H14 WT but not ZC3H14 S475A”.
